T1: alpha-s1 casein from Bos taurus
T1 chain: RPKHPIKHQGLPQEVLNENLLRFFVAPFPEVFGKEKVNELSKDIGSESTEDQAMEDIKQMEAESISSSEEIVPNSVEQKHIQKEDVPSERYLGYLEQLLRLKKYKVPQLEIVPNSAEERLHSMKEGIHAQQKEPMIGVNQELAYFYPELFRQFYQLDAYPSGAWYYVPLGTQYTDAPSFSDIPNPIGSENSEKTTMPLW


Molecular target: T1, alpha-s1 casein from Bos taurus

Row | Protein | hydrolysis of the first cut in alpha-s1-casein | small, 6 hours, 11° C. | small, 24 hours, 11° C. | αs1-I CN, 6 hours, 11° C. | αs1-I CN, 24 hours, 11° C. | αs1-I CN/αs1 CN, 6 hours, 11° C. | αs1-I CN/αs1 CN, 24 hours, 11° C. | αs1 CN, 6 hours, 11° C. | αs1 CN, 24 hours, 11° C. | (αSN1-1)/(αSN1), 6 hours, 11° C.
1 | bovine chymosin B variant #1 (A51V) (protein) GEVASVPLTNYLDSQYFGKIYLGTPPQEFTVLFDTGSSDFWVPSIYCKSNVCKNHQRFDPRKSSTFQNLGKPLSIHYGTGSMQGILGYDTVTVSNIVDIQQTVGLSTQEPGDVFTYAEFDGILGMAYPSLASEYSIPVFDNMMNRHLVAQDLFSVYMDRNGQESMLTLGAIDPSYYTGSLHWVPVTVQQYWQFTVDSVTISGVVVACEGGCQAILDTGTSKLVGPSSDILNIQQAIGATQNQYGEFDIDCDNLSYMPTVVFEINGKMYPLTPSAYTSQDQGFCTSGFQSENHSQKWILGDVFIREYYSVFDRANNLVGLAKAI | show a clear hydrolysis of the first cut in alpha-s1-casein, leading to a rapid formation of fragment alpha-s1-I casein | 0 Volume | 0 Volume | 1.88e+07 Volume | 2.36e+07 Volume | 0.9 | 4.1 | 2.05e+07 Volume | 5.8e+06 Volume | 
2 | camel chymosin variant #141 (F223N) (protein) GKVAREPLTSYLDSQYFGKIYIGTPPQEFTVVFDTGSSDLWVPSIYCKSNVCKNHHRFDPRKSSTFRNLGKPLSIHYGTGSMEGFLGYDTVTVSNIVDPNQTVGLSTEQPGEVFTYSEFDGILGLAYPSLASEYSVPVFDNMMDRHLVARDLFSVYMDRNGQGSMLTLGAIDPSYYTGSLHWVPVTLQQYWQFTVDSVTINGVAVACVGGCQAILDTGTSVLNGPSSDILKIQMAIGATENRYGEFDVNCGNLRSMPTVVFEINGRDYPLSPSAYTSKDQGFCTSGFQGDNNSELWILGDVFIREYYSVFDRANNRVGLAKAI |  |  |  | 2.57e+07 Volume | 2.49e+07 Volume |  |  | 3.57e+07 Volume | 1.27e+07 Volume | 0.7
3 | camel chymosin variant #148 (Q288N) (protein) GKVAREPLTSYLDSQYFGKIYIGTPPQEFTVVFDTGSSDLWVPSIYCKSNVCKNHHRFDPRKSSTFRNLGKPLSIHYGTGSMEGFLGYDTVTVSNIVDPNQTVGLSTEQPGEVFTYSEFDGILGLAYPSLASEYSVPVFDNMMDRHLVARDLFSVYMDRNGQGSMLTLGAIDPSYYTGSLHWVPVTLQQYWQFTVDSVTINGVAVACVGGCQAILDTGTSVLFGPSSDILKIQMAIGATENRYGEFDVNCGNLRSMPTVVFEINGRDYPLSPSAYTSKDQGFCTSGFNGDNNSELWILGDVFIREYYSVFDRANNRVGLAKAI |  |  |  | 1.74e+07 Volume | 2.62e+07 Volume |  |  | 2.83e+07 Volume | 2.03e+07 Volume | 0.6
4 | camel chymosin variant #144 (F223Y) (protein) GKVAREPLTSYLDSQYFGKIYIGTPPQEFTVVFDTGSSDLWVPSIYCKSNVCKNHHRFDPRKSSTFRNLGKPLSIHYGTGSMEGFLGYDTVTVSNIVDPNQTVGLSTEQPGEVFTYSEFDGILGLAYPSLASEYSVPVFDNMMDRHLVARDLFSVYMDRNGQGSMLTLGAIDPSYYTGSLHWVPVTLQQYWQFTVDSVTINGVAVACVGGCQAILDTGTSVLYGPSSDILKIQMAIGATENRYGEFDVNCGNLRSMPTVVFEINGRDYPLSPSAYTSKDQGFCTSGFQGDNNSELWILGDVFIREYYSVFDRANNRVGLAKAI |  |  |  | 3.05e+07 Volume | 2.82e+07 Volume |  |  | 3.12e+07 Volume | 8.4e+06 Volume | 1
5 | camel chymosin variant #145 (F223I) (protein) GKVAREPLTSYLDSQYFGKIYIGTPPQEFTVVFDTGSSDLWVPSIYCKSNVCKNHHRFDPRKSSTFRNLGKPLSIHYGTGSMEGFLGYDTVTVSNIVDPNQTVGLSTEQPGEVFTYSEFDGILGLAYPSLASEYSVPVFDNMMDRHLVARDLFSVYMDRNGQGSMLTLGAIDPSYYTGSLHWVPVTLQQYWQFTVDSVTINGVAVACVGGCQAILDTGTSVLIGPSSDILKIQMAIGATENRYGEFDVNCGNLRSMPTVVFEINGRDYPLSPSAYTSKDQGFCTSGFQGDNNSELWILGDVFIREYYSVFDRANNRVGLAKAI |  |  |  | 1.91e+07 Volume | 1.17e+07 Volume |  |  | 1.57e+07 Volume | 2.8e+06 Volume | 1.2
6 | camel chymosin variant #150 (Q288S) (protein) GKVAREPLTSYLDSQYFGKIYIGTPPQEFTVVFDTGSSDLWVPSIYCKSNVCKNHHRFDPRKSSTFRNLGKPLSIHYGTGSMEGFLGYDTVTVSNIVDPNQTVGLSTEQPGEVFTYSEFDGILGLAYPSLASEYSVPVFDNMMDRHLVARDLFSVYMDRNGQGSMLTLGAIDPSYYTGSLHWVPVTLQQYWQFTVDSVTINGVAVACVGGCQAILDTGTSVLFGPSSDILKIQMAIGATENRYGEFDVNCGNLRSMPTVVFEINGRDYPLSPSAYTSKDQGFCTSGFSGDNNSELWILGDVFIREYYSVFDRANNRVGLAKAI |  |  |  | 1.83e+07 Volume | 2.31e+07 Volume |  |  | 2.87e+07 Volume | 1.72e+07 Volume | 0.6

Same assay, conditions: not given

Row | Protein | (αSN1-1)/(αSN1), 24 hours, 11° C.
7 | camel chymosin variant #141 (F223N) (protein) GKVAREPLTSYLDSQYFGKIYIGTPPQEFTVVFDTGSSDLWVPSIYCKSNVCKNHHRFDPRKSSTFRNLGKPLSIHYGTGSMEGFLGYDTVTVSNIVDPNQTVGLSTEQPGEVFTYSEFDGILGLAYPSLASEYSVPVFDNMMDRHLVARDLFSVYMDRNGQGSMLTLGAIDPSYYTGSLHWVPVTLQQYWQFTVDSVTINGVAVACVGGCQAILDTGTSVLNGPSSDILKIQMAIGATENRYGEFDVNCGNLRSMPTVVFEINGRDYPLSPSAYTSKDQGFCTSGFQGDNNSELWILGDVFIREYYSVFDRANNRVGLAKAI | 2
8 | camel chymosin variant #148 (Q288N) (protein) GKVAREPLTSYLDSQYFGKIYIGTPPQEFTVVFDTGSSDLWVPSIYCKSNVCKNHHRFDPRKSSTFRNLGKPLSIHYGTGSMEGFLGYDTVTVSNIVDPNQTVGLSTEQPGEVFTYSEFDGILGLAYPSLASEYSVPVFDNMMDRHLVARDLFSVYMDRNGQGSMLTLGAIDPSYYTGSLHWVPVTLQQYWQFTVDSVTINGVAVACVGGCQAILDTGTSVLFGPSSDILKIQMAIGATENRYGEFDVNCGNLRSMPTVVFEINGRDYPLSPSAYTSKDQGFCTSGFNGDNNSELWILGDVFIREYYSVFDRANNRVGLAKAI | 1.3
9 | camel chymosin variant #144 (F223Y) (protein) GKVAREPLTSYLDSQYFGKIYIGTPPQEFTVVFDTGSSDLWVPSIYCKSNVCKNHHRFDPRKSSTFRNLGKPLSIHYGTGSMEGFLGYDTVTVSNIVDPNQTVGLSTEQPGEVFTYSEFDGILGLAYPSLASEYSVPVFDNMMDRHLVARDLFSVYMDRNGQGSMLTLGAIDPSYYTGSLHWVPVTLQQYWQFTVDSVTINGVAVACVGGCQAILDTGTSVLYGPSSDILKIQMAIGATENRYGEFDVNCGNLRSMPTVVFEINGRDYPLSPSAYTSKDQGFCTSGFQGDNNSELWILGDVFIREYYSVFDRANNRVGLAKAI | 3.3
10 | camel chymosin variant #145 (F223I) (protein) GKVAREPLTSYLDSQYFGKIYIGTPPQEFTVVFDTGSSDLWVPSIYCKSNVCKNHHRFDPRKSSTFRNLGKPLSIHYGTGSMEGFLGYDTVTVSNIVDPNQTVGLSTEQPGEVFTYSEFDGILGLAYPSLASEYSVPVFDNMMDRHLVARDLFSVYMDRNGQGSMLTLGAIDPSYYTGSLHWVPVTLQQYWQFTVDSVTINGVAVACVGGCQAILDTGTSVLIGPSSDILKIQMAIGATENRYGEFDVNCGNLRSMPTVVFEINGRDYPLSPSAYTSKDQGFCTSGFQGDNNSELWILGDVFIREYYSVFDRANNRVGLAKAI | 4.1
11 | camel chymosin variant #150 (Q288S) (protein) GKVAREPLTSYLDSQYFGKIYIGTPPQEFTVVFDTGSSDLWVPSIYCKSNVCKNHHRFDPRKSSTFRNLGKPLSIHYGTGSMEGFLGYDTVTVSNIVDPNQTVGLSTEQPGEVFTYSEFDGILGLAYPSLASEYSVPVFDNMMDRHLVARDLFSVYMDRNGQGSMLTLGAIDPSYYTGSLHWVPVTLQQYWQFTVDSVTINGVAVACVGGCQAILDTGTSVLFGPSSDILKIQMAIGATENRYGEFDVNCGNLRSMPTVVFEINGRDYPLSPSAYTSKDQGFCTSGFSGDNNSELWILGDVFIREYYSVFDRANNRVGLAKAI | 1.3

Reference: patent publication US20150140169
